Experimental data taken from paper PMC5784169, “Repression of Akt3 gene transcription by the tumor suppressor RIZ1”.

Experiments:
GST-RIZ1-Zf1-3 = molecular target: T1, GST-RIZ1-Zf1-3 (UniProt Q13029 360-506); experiment: EMSA; abolished by 30-fold excess unlabeled probe; LightShift Chemiluminescent EMSA kit, native PAGE; buffer, salt, pH and temperature not stated; conditions: protein: recombinant; tags: N-terminal GST (pGEX-KG); label: 3' biotin; blunt
T1 sequence: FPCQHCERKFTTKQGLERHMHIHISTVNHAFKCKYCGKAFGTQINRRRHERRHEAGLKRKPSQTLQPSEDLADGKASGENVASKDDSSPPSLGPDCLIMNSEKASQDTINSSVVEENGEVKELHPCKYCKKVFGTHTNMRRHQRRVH

GST-RIZ1-Zf8 = molecular target: T2, GST-RIZ1-Zf8 (UniProt Q13029 1455-1478); experiment: as above; conditions: protein: recombinant; tags: N-terminal GST (pGEX-KG); label: 3' biotin; blunt
T2 chain: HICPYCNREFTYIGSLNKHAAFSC

B1: mouse Akt3 promoter CpG146 probe (dsDNA)
DNA 1: GGGGAGGGGCCGTCTGCGCATGTGGCGGGAGTGCGGGCGA
DNA 2: TCGCCCGCACTCCCGCCACATGCGCAGACGGCCCCTCCCC
B1: binds (GST-RIZ1-Zf1-3); binds (GST-RIZ1-Zf8).
